Experimental data as given in the supplement of paper PMC9170038.

System: MS2 coat protein
Test: apparent KD of MS2 coat protein; higher = weaker reporter binding
Conditions: Eterna round: R107
Method in brief: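 Binding of SNAP-549-labelled MS2 coat protein was measured on designed RNA switches transcribed on-chip from Illumina sequencing clusters. The protein rose in twofold steps from 0.7 or 1.5 nM to 3 µM, with 0.8–1.5 h per step early on and 10–20 min per step later, in 100 mM Tris-HCl pH 7.5, 80 mM KCl, 4 mM MgCl2, without or with constant ligand. Each design's apparent KD is the median of fits to its normalised cluster binding curves.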

[1] = input ligand: theophylline 20 uM
[2] = input ligand: tryptophan 2.4 mM
[3] = input ligand: theophylline 2 mM

Sequence	apparent KD of MS2 coat protein (input ligand: arginine 13.2 mM)	apparent KD of MS2 coat protein [1]	apparent KD of MS2 coat protein [2]	apparent KD of MS2 coat protein (input ligand: none)	apparent KD of MS2 coat protein [3]
UAACAUGAGGAUCACCCAUGUAUAGUCGAUACCAGCUCAAGGAAGAGCCCUUGGCAGCGACACUGCCAAGCAUGGGUCAUGGCAG [(Ms2)-(Theo)-(T)'-(M)'-(T)''_Design5]	20.7 nM	31.9 nM	19.5 nM	–	–
UAAUAAUCCAGGGUGUAGGUAAUAACAGAUACCAGCCAGAUAACUGGCCCUUGGCAGCUGAAAACCUGAGGAUCACCCAGGUAAA [TheoAS 23 #OpenEnded #MS2Late #AlternativeMS2]	36.4 nM	122 nM	62.6 nM	56.2 nM	67.7 nM
UAAUGCAGGUCGGCCGCCACUACACACAUGAGGAUCACCCAUGUAGUUACUGGGUGAAGUGGCAGUAGGACCGGGACCUGCAUAC [Brourdmod04]	165 nM	578 nM	–	–	833 nM
UAGACGGCCGGAAGGAGCGGUACAUGAGGAUCACCCAUGUAUCCCUGGGCAUCCGUAGUGUGCCAGGUAGGUCGCCGGUUGCGGG [XArg-B21]	15.3 nM	25.2 nM	15.9 nM	15.5 nM	18.2 nM
UAUAUAGAAGGAUGUCAUAUAGAUGCAGAAGGAGCGUAGGAAACUACAGGUAGGUCGCUGAGGUACAUGAGGAUCACCCAUGUAG [SSArg A #17 Slice of Pi]	32.6 nM	54 nM	26.7 nM	33.1 nM	45.5 nM
UAUAUAGUGAUGGAUACCAGCAGAGAAAACGUUUAUCCUAACAUGAGGAUCACCCAUGUAUGCCCUUGGCAGCUGUUGUUAUAUA [8.L]	20.8 nM	30.1 nM	21.4 nM	–	–
UAUAUAUACUCGGCCGCCACUGAGAGAGUCAUGUAAACAUGAGGAUCACCCAUGUAAUAUAUAUACAGGACCGGGAGUAUAUGAA [4.B]	11.8 nM	17.7 nM	–	–	15.5 nM
UAUAUAUAGGGAAGGAGCGGGAACAUGAGGAUCACCCAUGUACAUGAGGAUCACCCAUGUACCCAGGUAGGUCGCCCAUAUAUAU [Exclusion - Arginine B]	90.7 nM	227 nM	241 nM	250 nM	276 nM
UAUAUAUAUAGGGAUACCAGCAGAGAAAACGUUUAUCCUAACAUGAGGAUCACCCAUGUAUGCCCUUGGCAGCUUUAUAUAUAUA [8.F]	23.6 nM	27.6 nM	24 nM	–	–
UAUAUAUAUAUUGAUACCAGCAGAGAAAACGUAUAUCCUAACAUGAGGAUCACCCAUGUAUGCCCUUGGCAGCGAUAUAUAUAUA [8.B]	21.2 nM	31 nM	24.9 nM	–	–
UAUCCACAUGAGGAUCACCCAUGUAGGGAAGGAGCGGUGAAUGCACCAGGUAGGUCGCCUUGCUGAGGACAGCCGGUGGAUUCGU [Exclusion - Arginine A (Freestyle 26)]	16.7 nM	19 nM	16 nM	12.2 nM	23 nM
UAUCCACAUGAGGAUCACCCAUGUUAGGAAGGAGCGGUGAGUGCACCAGGUAGGUCGCCUAGCUGAGGACUGUCGGUGGAUUCGU [Exclusion - Arginine A (Freestyle 20)]	39.7 nM	67.3 nM	47.7 nM	88 nM	57.1 nM
UAUGCACAUGAGGAUCACCCAUGUAUGGAAGGAGCGGUGAAUAAACCAGGUAGGUCGCCAUGGUGAGGAUCAUCUAUGUAAUCGU [Exclusion - Arginine A (Freestyle 6)]	62.3 nM	125 nM	87.8 nM	93.2 nM	103 nM
UAUUUUGGGCGCGAGCCCGGGAUAAUUGAUACCAGUGAAGAAGAGCGCCCUUGGCAGCGAAUCCUAACAUGAGGAUCACCCAUGU [5.Q]	52.5 nM	65.4 nM	45.1 nM	–	–
UCAUGAGGAUCACCCAUGUGGCGUCUUGAUACCAGACGAGAAGUAGUCCCUUGGCAGCAAAUACAUGAGGAUCACCCAUGUAGGA [cccmullin2]	24.5 nM	38.2 nM	43 nM	–	–
UCCUCCUCCGCAAGGAGGAGGAGUUGCGAUACCAGCACGGUAACGUGCCCUUGGCAGCGCACAUGAGGAUCACCCAUGUGGUGUU [#1 Exclusion - Theophylline A Attempt #12 (HarryS)]	52.7 nM	455 nM	231 nM	228 nM	379 nM
UCGCCCGGGUCGGCCGCCACUGAGGUAAUAUGACAUGAGGAUCACCCAUGUUGUCAUGUGGAACAUAGGACCGGGACCCGGGCGA [Exclusion - Tryptophan B Attempt #1 (HarryS)]	9.15 nM	15.1 nM	13.4 nM	8.61 nM	15.2 nM
UCGCUCGCCGAAAGGCGAGCGAGUUGCGAUACCAGCCCGGAAACGGGCCCUUGGCAGCGCACAUGAGGAUCACCCAUGUCAUGUU [#1 Exclusion - Theophylline A Attempt #3 (HarryS)]	13.4 nM	25.3 nM	31.3 nM	19.4 nM	58.7 nM

Sequence	apparent KD of MS2 coat protein (input ligand: arginine 13.2 mM)	apparent KD of MS2 coat protein [1]	apparent KD of MS2 coat protein [2]	apparent KD of MS2 coat protein (input ligand: none)	apparent KD of MS2 coat protein [3]
UCGGACAUGAGGAUCACCCAUGUAAAUCCUCGAGGACCGGUACGGCCGCCACUCGAACGAGUGGCGCGCGAGUGCGCACUCGCGC [aFa]	22.2 nM	57.9 nM	26.6 nM	33.2 nM	35.8 nM
UCGGGCAUGGCGGCCGCCACUGGUUGGCGUGCGGAUGAGGGAACAUGAGGAUCACCCAUGUUGGUUAGGACCGGGCUUGCGUCGU [knkmullin]	11.8 nM	18 nM	13.4 nM	16.5 nM	15.2 nM
UCGUGUAUAACGGAUACCAGUGAGAAGGAUACAUGAGGAUCACCCAUGUGAGUUGAUCCACACCCUUGGCAGCUGUAUAUAUCUA [alamullin]	103 nM	468 nM	290 nM	–	–
UCGUGUAUAUCGGAUACCAGUGAGAAGGAUACAUGAGGAUCACCCAUGUGAGUUGAUGUACACCCUUGGCAGCUGUAUAUAUCUA [.plullin]	36 nM	62.7 nM	47.9 nM	–	–
UCGUUUGAGGCGGCCGCCACUGGUCUCAUGGUCAACAUGAGGAUCACCCAUGUAUCUUUGCUAAGCAGGACCGGGCCUCGAGCGA [#19 Exclusion Tryptophan B]	43.5 nM	87.4 nM	–	–	87.5 nM
UGAAAGUAGGGAAGGAGCGCUACAACAUGAGGAUCACCCAUGUUAUGAGGAUCACCCGUGUGGCAGGUAGGUCGCCCAAAACAUG [#13 Same State - Arginine B]	40.6 nM	46.7 nM	31.9 nM	43.9 nM	35.6 nM
UGACAGAUAACCGCUGGUGCUCUCGAGUUGCGAGGACCGGUACGGCCGCCACUCGACAACAUGAGGAUCACCCAUGUUGCGGGUC [Lareara]	30.7 nM	108 nM	–	–	156 nM
UGACAUUGCUCAGAUACCAGACAUGAGGAUCACCCAUGUGCCAAACGUACAAUAAUAAAUGUCCCUUGGCAGCUGAGCAAUGUCU [TheoBX 14 #MS2Left #Theo2]	13.4 nM	17.3 nM	11.6 nM	–	–
UGACAUUGCUGCGAUACCAGACAUGAGGAUCACCCAUGUACCAAGGUACGAAAAUAACAUGUCCCUUGGCAGCGCAGCAAUGUCU [MAT - Exclusion Theophlline B - Mod of Eli - D4]	12.6 nM	25.7 nM	12.1 nM	–	–
UGACGAGGCCUGGAUACCAGCGACAUGAGGAUCACCCAUGUAUGAGGAUCAGCCAUGUUAUGCCCUUGGCAGCCACGAAGGUCAG [WQQMULLIN]	21.6 nM	38.2 nM	22.9 nM	25.4 nM	220 nM
UGAGUUAGACAAAAGUCUAGCUCUGGUGAAGGAGCGUCCGAAAGGACAGGUAGGUCGCACCACCUGAGGAUCACCCGGGUUCCUA [ArgAS 13 #OpenEnded #AlternativeMS2]	360 nM	544 nM	115 nM	167 nM	991 nM
UGAUACCAGUCGGCCGCCACUACAUGAGGAUCACCCAUGUAUGGGUCAAUGCUAGAUACUAGCAGUAGGACCGGGACUGGUAUCU	11.4 nM	14.8 nM	–	–	13.2 nM
UGAUCCUACAGAGAUACCAGUGCCACUGAGUGACCAGACACAUGAGGAUCACCCAUGUAACACCCUUGGCAGCUCAACUAGAGGG [Same State Theophylline B GF18]	16.8 nM	22.3 nM	19.7 nM	–	–
UGCAUGAUCUGAAGGAGCGUGUAUGAUGAUAACAUGAGGAUCACCCAUGUCGAGACGGUAACACAGGUAGGUCGCAGAUCAUGCU [Arg B SS t4]	21.4 nM	31.7 nM	24.7 nM	23.2 nM	28.3 nM
UGGCGAGAAGGAAGGAGCGUCAGCUGAGUCACAUGAGGAUCACCCAUGUAGGACAUGGUGUGACAGGUAGGUCGCCUUCUGCCCU [SS-ArgB18]	16.9 nM	25.7 nM	13 nM	14.6 nM	22.5 nM
UGGGUACAUGAGGAUCACCCAUGUACUGAAGGAGCGAGAAAUAACUCAGGUAGGUCGCAGACAUGAGGAUCACCCAUGUAAUAAA [Exclusion Arginine A GF 10]	16 nM	23.4 nM	18 nM	18 nM	22.5 nM
UGGUAGGUAGGAAGGAGCGCAUACUUCACAUGAGGAUCACCCAUGUCGAGACGUGAGUCAGUGCAGGUAGGUCGCCUAGUUAUGA [Same State - Arginine B (Freestyle 23)]	30.4 nM	36.1 nM	30.3 nM	36.4 nM	37.6 nM
